The values that follow come from patent publication US20240366788A1 (DUKE UNIVERSITY, published 2024).

The test deals with T1, H2-Q7 (QA2), GPI-anchored MHC class Ib molecule on murine T cells (mouse, UniProt P14429 22-334; P01887 21-119).
T1 construct: whole, on cells; also called H2-Q7/MHC-I
T1 sequence (MHC heavy, looked up): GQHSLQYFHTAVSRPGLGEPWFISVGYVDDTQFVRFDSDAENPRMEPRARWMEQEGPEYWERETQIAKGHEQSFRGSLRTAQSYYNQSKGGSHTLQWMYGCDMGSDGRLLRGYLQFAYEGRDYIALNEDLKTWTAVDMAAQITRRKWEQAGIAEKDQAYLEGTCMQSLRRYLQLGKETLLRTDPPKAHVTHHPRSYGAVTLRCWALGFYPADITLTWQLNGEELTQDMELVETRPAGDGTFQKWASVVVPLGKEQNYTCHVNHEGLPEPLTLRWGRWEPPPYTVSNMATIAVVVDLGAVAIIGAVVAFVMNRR
T1 sequence (b2m, looked up): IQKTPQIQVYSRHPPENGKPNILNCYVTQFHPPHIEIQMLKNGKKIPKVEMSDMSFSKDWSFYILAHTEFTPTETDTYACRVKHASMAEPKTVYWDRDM
Briefly: qPCR of surface-bound viral genomes on C57BL/6J T cells, 1 hr at 4 C, with against without PI-PLC pre-treatment. (In general: Quantitative PCR measures a nucleic acid by following its amplification.)

B1: Ark313 AAV capsid (AAV6 capsid variant with 454-VVNPAEG-460) (other)
chain: MAADGYLPDWLEDNLSEGIREWWDLKPGAPKPKANQQKQDDGRGLVLPGYKYLGPFNGLDKGEPVNAADAAALEHDKAYDQQLKAGDNPYLRYNHADAEFQERLQEDTSFGGNLGRAVFQAKKRVLEPFGLVEEGAKTAPGKKRPVEQSPQEPDSSSGIGKTGQQPAKKRLNFGQTGDSESVPDPQPLGEPPATPAAVGPTTMASGGGAPMADNNEGADGVGNASGNWHCDSTWLGDRVITTSTRTWALPTYNNHLYKQISSASTGASNDNHYFGYSTPWGYFDFNRFHCHFSPRDWQRLINNNWGFRPKRLNFKLFNIQVKEVTTNDGVTTIANNLTSTVQVFSDSEYQLPYVLGSAHQGCLPPFPADVFMIPQYGYLTLNNGSQAVGRSSFYCLEYFPSQMLRTGNNFTFSYTFEDVPFHSSYAHSQSLDRLMNPLIDQYLYYLNRTQNQSVVNPAEGLLFSRGSPAGMSVQPKNWLPGPCYRQQRVSKTKTDNNNSNFTWTGASKYNLNGRESIINPGTAMASHKDDKDKFFPMSGVMIFGKESAGASNTALDNVMITDEEEIKATNPVATERFGTVAVNLQSSSTDPATGDVHVMGALPGMVWQDRDVYLQGPIWAKIPHTDGHFHPSPLMGGFGLKHPPPQILIKNTPVPANPPAEFSATKFASFITQYSTGQVSVEIEWELQKENSKRWNPEVQYTSNYAKSANVDFTVDNNGLYTEPRPIGTRYLTRPL
For B1, the “fold reduction in bound virus per cell after PI-PLC treatment (GPI cleavage)” value was roughly 10 fold.
